Experimental data as given in the nanobody polyreactivity screen of Harvey et al. (2022).

assay: yeast display, Sf9 membrane polyspecificity reagent, FACS + sequencing; frameworks hold sequencing errors
Procedure, shortened: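 Nanobodies from a synthetic yeast display library (Saccharomyces cerevisiae BJ5465), induced 36–48 hours with galactose, were stained 1 hour at 4 °C with 10% biotinylated, detergent-solubilized Sf9 membrane reagent, enriched on streptavidin microbeads, then FACS-sorted. Anti-HA (expression) and streptavidin (reagent binding) fluorescence set low and high (top ~1%) gates. Polyreactivity labels come from the gate of origin. Genes were colony-PCR amplified, MiSeq 2 × 250 sequenced and filtered by CDR length.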

| Sequence | polyreactivity (PSR sort gate) |
| --- | --- |
| QVQLVESGGGLVQAGGSLRLSCAASGRIFGRYAMGWYRQAPGKERELVAAITSGGSTKYADSVKGRFTISRDNAKNNVDLQMNSLKPEDTAVYYCAVVPYGPVYRSYYYWGQGTQVTVSS | high polyreactivity |
| QVQLVESGGGLVQAGGSLRLSCAASGRIFGRYAMGWYRQAPGKERELVAGISARGGSTYYADSVKGRFTISRDNAKNTVYLQMNSLKPADTAVYYCAAAGYRGGGYWGQRTQVTVSS | high polyreactivity |
| QVQLVESGGGLVQAGGSLRLSCAASGRIFGRYAMGWYRQAPGKERELVARITFRGGNTYYADSVKGRFTISRDNAKNTVYLQMNSLKPEDTAVYYCNASKHNPYGGDYWGQGTQVTVSS | high polyreactivity |
| QVQLVESGGGLVQAGGSLRLSCAASGRIFGRYAMGWYRQAPGKERELVASIRSRGGSTYYADSVKGRFTISRDNAKNTVYLQMNSLKPEDTAVYYCAADGTRSYKGYYWGQGTQVTVSS | high polyreactivity |
| QVQLVESGGGLVQAGGSLRLSCAASGRIFGRYAMGWYRQAPGKERGLVAAITRRGGNTYYADSVKGRFTISRDNAKNTVYLQMNSLKPEDTAVYYCNDDTSTYAIRGQWSWYDYWGQGTQVTVSS | high polyreactivity |
| QVQLVESGGGLVQAGGSLRLSCAASGRIFGRYAMGWYRQATGKERELVAAITSGGRTSYADSVKGRFTISRDNAKNTVYLQMNSLKPEDTAVYYCNVVSRNSIRFDYWGQGTQVTVSS | high polyreactivity |
| QVQLVESGGGLVQAGGSLRLSCAASGRIFGSNAMGWYRQAPAKERELVAAITFRTASTYYADSVKGRFTISRDNAKNTVYLQMNSLKPEDTSVYSCNADKFSAPPLYEYEYWGQGTQVTVSS | low polyreactivity |
| QVQLVESGGGLVQAGGSLRLSCAASGRIFGSYAMGWYRQAPGKERELVATISRRGGSTYYADSVKGRFTISRDNAKNTVYLQMNRLKPEDTAVYYCNADYKITKTWSGTIRYYYWGQGTQVTVSS | high polyreactivity |
| QVQLVESGGGLVQAGGSLRLSCAASGRIFGSYGMGWYRQAPGKEWELVAAITPSGTSTYYADSVKGRFTISRDNAKNTVYLEMNSLKPEDTAVYNCNALFYRRYAFAFGYWRQGTQVTVSS | high polyreactivity |
| QVQLVESGGGLVQAGGSLRLSCAASGRIFGTNAMGWYRQAPGKERELVAAITWNADDTYYADSVKGRFTISRDNAKNTVYLQMNSLKPEDTAVYYCAADSYEGYYYWGQGTQVTVSS | low polyreactivity |
| QVQLVESGGGLVQAGGSLRLSCAASGRIFGTNAMGWYRQAPGKERELVADITSGGSTNYADSVKGRFTISRDNAKNTVYLQMNSLKPEDTAVYYCAADVIADLRWYRDEYWGQGTQLTVSS | low polyreactivity |
| QVQLVESGGGLVQAGGSLRLSCAASGRIFGTYAMGWYRQAPGKERELVAAITSGGRTYYADSVKGRFTISRDNAKNTVYLQMNSLKPEDTAVYYCNAVRYYVYDRRFNYWGQGTQVTVSS | high polyreactivity |
| QVQLVESGGGLVQAGGSLRLSCAASGRIFGTYAMGWYRQAPRKERELVAAITQSARSTYYADSVKGRFTISRDNAKNTVYLQMNSLKPEDTAVYYCAAVGYYTKRRFGYWGQGTQVTVSS | high polyreactivity |
| QVQLVESGGGLVQAGGSLRLSCAASGRIFGTYTKGWYRQAPGKERELVAAITTGGITNYADSVKGRFTISRDNAKNTVYLQMKSLKPEDTAVYYCNARWDYGAYEYWGQGTQVTVSS | low polyreactivity |
| QVQLVESGGGLVQAGGSLRLSCAASGRIFGVNAMGRYRQAPGKERELVADISSGGSTYYADSVKGRFTISRDNAKNTVYLQMNSLNPEDTAVYSCAVDKYVFVSYSFYFEYDYWGQGTQVTVSS | low polyreactivity |
| QVQLVESGGGLVQAGGSLRLSCAASGRIFGVNAMGWYRQAPGKERELVAAIDWSDGSTYYADSVKGRFTISRDNAKNTVYLQMNSLKPEDTAVYYCATDYSYGDYYDDEFPSDDFDYWGQGTQVTVSS | low polyreactivity |

| Sequence | polyreactivity (PSR sort gate) |
| --- | --- |
| QVQLVESGGGLVQAGGSLRLSCAASGRIFGVNAMGWYRQAPGKERELVAAINYSGGRTSYADSVKGRFTISRDNEKNTVYLQMKSLKPEDTAVYYCAKYGLRGGYLYYYWGQGTQVTVSS | high polyreactivity |
| QVQLVESGGGLVQAGGSLRLSCAASGRIFGVNAMGWYRQAPGKERELVAAITSGGSTNYADSVKGRFTISRDNAKNTVYLQMNSLKPEDTAVYYCAAVNYYWGQGTQVTVSS | low polyreactivity |
| QVQLVESGGGLVQAGGSLRLSCAASGRIFGVNAMGWYRQAPGKERELVADITGSGGSTYYADSVKGRFTISRDNAKNTVYLQMNCLKAEDTAVYYCATRWIGYTSQWDHFEYDYWGQGTQVTVSS | low polyreactivity |
| QVQLVESGGGLVQAGGSLRLSCAASGRIFGVNAMGWYRQAPGKERELVAVISSGGSTYYADSVKGRFTISRDNAKKTVYLQMNSLKPEDTEVYYCDRKSYNFIPGNREYDYWGQGTQVTVSS | low polyreactivity |
| QVQLVESGGGLVQAGGSLRLSCAASGRIFGVNAMGWYRQAPGKVRELVAAIRYSGGSTYYADSVKGRFTISRDYAKNTVYLQMNSLKPEDTAVYYCAKARYTYSWSFGYWGQGTQVTVSS | low polyreactivity |
| QVQLVESGGGLVQAGGSLRLSCAASGRIFGVYALGWYRQAPGKARELVAVINGRGSRTYYADSVKGRFRISRDNAKNTVYLQMNSLKPEDTAVYYCAAGYPASEYDYWGQGTQVTVSS | high polyreactivity |
| QVQLVESGGGLVQAGGSLRLSCAASGRIFGVYAMGWYREAPGKEREVVAAITYRGASTYADSVKGRFTISRVNAKKTVYLQMNSLKPEDTAVYYCATYPQYYFRYDYWGQGTQVTVSS | high polyreactivity |
| QVQLVESGGGLVQAGGSLRLSCAASGRIFGVYAMGWYRQAPGKERELFADISWSGSGTYADSVKGRFTISRDNAKNTVYLQMNSLKPEDTAVYYCNVDPAQIHAGYVGYDYWGQGTQVTVSS | low polyreactivity |
| QVQLVESGGGLVQAGGSLRLSCAASGRIFGVYAMGWYRQAPGKERELVAAISFSGGRTYYADSVKGRFTISRDNAKNTVYLQMNSLKAEDTAVYDCAALGPYDWLWAGDYWGQGTQVTVSS | low polyreactivity |
| QVQLVESGGGLVQAGGSLRLSCAASGRIFGVYAMGWYRQAPGKERELVAAISSTGDRTYYADSVKGRFTISRDNAKNTVYLQMNSLKPEDTAVYYCAARPAYRSSYYWGQGTQVTVSS | high polyreactivity |
| QVQLVESGGGLVQAGGSLRLSCAASGRIFGVYAMGWYRQAPGKERQLVAAITARGGSTYYADSVKGRFTISRDNAKNTVYLQMNSLKPEDTAVYYCATRLYKRTRTITYGYWGQGTQVTVSS | high polyreactivity |
| QVQLVESGGGLVQAGGSLRLSCAASGRIFGVYGMGWYRQAPGKERELVAAITISGRTNYADSVKGRFTISRDNAKNTVYLQMNSLKPEDTAVYYCAAEKRKLFQGVARYRYEYWGQGTQVTVSS | low polyreactivity |
| QVQLVESGGGLVQAGGSLRLSCAASGRIFGVYGMGWYRQAPGKERELVAAITISGRTNYADSVKGRFTISRDNAKNTVYLQMNSLKREDTAVYYCAAGGQARHDYWGQGTQVTVSS | low polyreactivity |
| QVQLVESGGGLVQAGGSLRLSCAASGRIFGYNAMGWYRQAPGKEREFVAAITYRGGSTYYADSVKGRFTISRDNAKTTVYLEMNSLKPEDTAVYYCASRVTQYPKYWGDYWGQGTQVTVSS | high polyreactivity |
| QVQLVESGGGLVQAGGSLRLSCAASGRIFGYNAMGWYRQAPGKERELVAAIRYSGGRTYYADSVKGRFTISRDNAKNTVYLQMNSLKREDTAVYYCAATAFDKLKVWYYYWGQGTQVTVSS | high polyreactivity |
| QVQLVESGGGLVQAGGSLRLSCAASGRIFGYNAMGWYRQAPGKERELVATISGRGGSTYYADSVKGRFTISRDNAKNTVYLQMNSLKPEDTAVYYCNAKRKYGRFPKKYYYWGQGTQVTVSS | high polyreactivity |
